Patent US20240209100A1 (DIAGONAL THERAPEUTICS, published 2024)
Values belong to the binder of their own block, whether it stands above or below them.

Tests used:
Test in all cases: cell-based or functional assay
[1] = target: T1, IL-18 receptor (IL-18Rα/IL-18Rβ) overexpressed on HEK-Blue IL-18 cells (Homo sapiens (Human), UniProt Q13478 19-541; O95256 20-599)
T1 sequence 1: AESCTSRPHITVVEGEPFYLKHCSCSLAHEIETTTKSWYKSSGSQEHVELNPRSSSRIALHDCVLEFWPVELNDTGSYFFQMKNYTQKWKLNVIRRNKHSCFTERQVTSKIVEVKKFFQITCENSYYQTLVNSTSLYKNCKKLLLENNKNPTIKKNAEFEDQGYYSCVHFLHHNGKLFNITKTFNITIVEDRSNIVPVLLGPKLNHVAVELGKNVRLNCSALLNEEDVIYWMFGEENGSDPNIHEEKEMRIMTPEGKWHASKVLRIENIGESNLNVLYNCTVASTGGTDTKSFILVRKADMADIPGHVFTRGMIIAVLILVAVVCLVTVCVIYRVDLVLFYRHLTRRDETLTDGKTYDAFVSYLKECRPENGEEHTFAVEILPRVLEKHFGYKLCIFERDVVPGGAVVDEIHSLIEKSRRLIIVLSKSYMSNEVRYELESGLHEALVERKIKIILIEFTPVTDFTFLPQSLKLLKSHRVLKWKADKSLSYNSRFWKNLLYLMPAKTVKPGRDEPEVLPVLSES
T1 sequence 2: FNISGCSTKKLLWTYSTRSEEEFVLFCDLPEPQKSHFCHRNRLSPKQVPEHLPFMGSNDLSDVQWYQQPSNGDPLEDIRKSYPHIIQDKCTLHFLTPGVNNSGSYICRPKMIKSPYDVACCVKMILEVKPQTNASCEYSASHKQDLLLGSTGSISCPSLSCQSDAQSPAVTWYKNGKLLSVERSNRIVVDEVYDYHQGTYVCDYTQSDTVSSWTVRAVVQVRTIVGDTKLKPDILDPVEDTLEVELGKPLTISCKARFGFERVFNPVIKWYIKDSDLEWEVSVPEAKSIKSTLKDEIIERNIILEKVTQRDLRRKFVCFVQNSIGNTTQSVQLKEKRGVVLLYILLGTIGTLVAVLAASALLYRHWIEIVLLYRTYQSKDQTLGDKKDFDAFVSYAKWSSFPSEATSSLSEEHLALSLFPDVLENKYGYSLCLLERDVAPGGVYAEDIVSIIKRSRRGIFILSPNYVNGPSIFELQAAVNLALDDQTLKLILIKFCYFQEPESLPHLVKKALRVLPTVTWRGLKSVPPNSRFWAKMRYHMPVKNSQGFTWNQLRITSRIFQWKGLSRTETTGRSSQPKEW

[2] = target: T1, IL-18 receptor (IL-18Rα/IL-18Rβ) …; remark: listed apart in the source
[3] = target: T1, IL-18 receptor (IL-18Rα/IL-18Rβ) …; remark: listed apart in the source

- EC50 (read off the curve), HEK Blue IL-18 SEAP reporter [1]: ~0.5 nM
- HEK-Blue IL-18: Abs 405 at 100 nM [2]: 2.6 Abs
- HEK-Blue IL-18: Fold over Background [2]: 11.4 fold
B1: DGL207 (bispecific antibody)
heavy 1: QVQLVESGGGLVQAGGSLRLSCAASGRTFSKHAMGWFRQAPGKEREFVAAIDWSGGSTYYADSVKGRFTISRDNAKNTVYLQMDSLKPEDTAVYYCAADSYTDYAQLWLPELESEYDYWGQGTLVTVSSCPPCPAPEAAGAPSVFLFPPKPKDTLMISRTPEVTCVVVDVSHEDPEVKFNWYVDGVEVHNAKTKPREEQYNSTYRVVSVLTVLHQDWLNGKEYKCKVSNKALPAPIEKTISKAKGQPREPQVCTLPPSRDELTKNQVSLSCAVKGFYPSDIAVEWESNGQPENNYKTTPPVLDSDGSFFLVSKLTVDKSRWQQGNVFSCSVMHEALHNHYTQKSLSLSPGWSHPQFEK
heavy 2: QLQLVESGGGLVQAGGSLRLSCAASRSITFSHNVMGWYRQAPGKQRELVASIGSGGSTNYVDSVKGRATISRDNAKKTVYLQMNSLKPEDTAVYYCGVVVGVYRGSLGQGTLVTVSSCPPCPAPEAAGAPSVFLFPPKPKDTLMISRTPEVTCVVVDVSHEDPEVKFNWYVDGVEVHNAKTKPREEQYNSTYRVVSVLTVLHQDWLNGKEYKCKVSNKALPAPIEKTISKAKGQPREPQVYTLPPCRDELTKNQVSLWCLVKGFYPSDIAVEWESNGQPENNYKTTPPVLDSDGSFFLYSKLTVDKSRWQQGNVFSCSVMHEALHNHYTQKSLSLSPGEPEA

- HEK-Blue IL-18: Emax (Abs at 630 nm) at 10^8 (average of two replicates) [3]: 0.28 Abs at 630 nm
B2: DGL012 (bispecific antibody, human IgG1, kappa, L234A L235A)
heavy 1: EVQLVESGGGLVQAGGSLRLSCAASGRTFSDARMGWFRQAPGRERELIAFISWFGSNTNYGSSVKGRFTISRDNTKNTVYLQMNSLKLEDTAVYYCAACRQSICIDSAEYFDDWGQGTQVTVSSDKTHTCPPCPAPEAAGGPSVFLFPPKPKDTLMISRTPEVTCVVVDVSHEDPEVKFNWYVDGVEVHNAKTKPREEQYNSTYRVVSVLTVLHQDWLNGKEYKCKVSNKALPAPIEKTISKAKGQPREPQVCTLPPSRDELTKNQVSLSCAVKGFYPSDIAVEWESNGQPENNYKTTPPVLDSDGSFFLVSKLTVDKSRWQQGNVFSCSVMHEALHNHYTQKSLSLSPG
heavy 2: not shown
light: DIQMTQSPSSLSASVGDRVTITCQASESIDNWLAWYQQKPGQAPKLLIYSASNLASGVPSRFSGSGSGTDFTLTISSLQPEDFATYYCQSTFYGVNPVPNAFGQGTKVVIKRTVAAPSVFIFPPSDEQLKSGTASVVCLLNNFYPREAKVQWKVDNALQSGNSQESVTEQDSKDSTYSLSSTLTLSKADYEKHKVYACEVTHQGLSSPVTKSFNRGEC

- HEK-Blue IL-18: Emax (Abs at 630 nm) at 10^8 (average of two replicates) [3]: 0.37 Abs at 630 nm
B3: DGL020 (bispecific antibody, human IgG1, kappa, L234A L235A)
heavy 1: B2 heavy 1
heavy 2: not shown
light: DIQMTQSPSSLSASVGDRVTITCQATEDIESFLAWYQQKPGQAPKLLIYRASTLESGVPSRFSGSGSGTDFTLTISSLQPEDFATYYCQSTVYGVNFVANAFGGGTKVVIKRTVAAPSVFIFPPSDEQLKSGTASVVCLLNNFYPREAKVQWKVDNALQSGNSQESVTEQDSKDSTYSLSSTLTLSKADYEKHKVYACEVTHQGLSSPVTKSFNRGEC

- EC50 (read off the curve), HEK Blue IL-18 SEAP reporter [1]: ~6 nM
B4: DGL333 (bispecific antibody)
heavy 1: EVQLLESGGGLVQPGGSLRLSCAASGRTFSKHAMGWFRQAPGKGLEFVSAIDWSGGSTYYADSVKGRFTISRDNSKNTVYLQMNSLRAEDTAVYYCAADSYTDYAQLWLPELESEYDYWGQGTLVTVSSCPPCPAPEAAGAPSVFLFPPKPKDTLYITREPEVTCVVVDVSHEDPEVKFNWYVDGVEVHNAKTKPREEQYNSTYRVVSVLTVLHQDWLNGKEYKCKVSNKALPAPIEKTISKAKGQPREPQVCTLPPSRDELTKNQVSLSCAVKGFYPSDIAVEWESNGQPENNYKTTPPVLDSDGSFFLVSKLTVDKSRWQQGNVFSCSVMHEALHNHYTQKSLSLSPG
heavy 2: QLQLLESGGGLVQPGGSLRLSCAASRSITFSHNVMGWYRQAPGKGRELVSSIGSGGSTNYVDSVKGRFTISRDNSKKTLYLQMNSLRAEDTAVYYCGVVVGVYRGSLGQGTLVTVSSCPPCPAPEAAGAPSVFLFPPKPKDTLYITREPEVTCVVVDVSHEDPEVKFNWYVDGVEVHNAKTKPREEQYNSTYRVVSVLTVLHQDWLNGKEYKCKVSNKALPAPIEKTISKAKGQPREPQVYTLPPCRDELTKNQVSLWCLVKGFYPSDIAVEWESNGQPENNYKTTPPVLDSDGSFFLYSKLTVDKSRWQQGNVFSCSVMHEALHNHYTQKSLSLSPG

- HEK-Blue IL-18: Emax (Abs at 630 nm) at 10^8 (average of two replicates) [3]: 0.37 Abs at 630 nm
B5: DGL023 (bispecific antibody, human IgG1, kappa, L234A L235A)
heavy 1: EVQLVESGGGLVQPGGSLRLSCAASGFTRSYYTIAWFRQAPGKEREGISCIRNTDGSTVVSDSVEGRFTISRDNAKNTVFLQMNSLKTEDTAVYYCAARNDRYGGLCSVRHNYEYWGQGTQVTVSSDKTHTCPPCPAPEAAGGPSVFLFPPKPKDTLMISRTPEVTCVVVDVSHEDPEVKFNWYVDGVEVHNAKTKPREEQYNSTYRVVSVLTVLHQDWLNGKEYKCKVSNKALPAPIEKTISKAKGQPREPQVCTLPPSRDELTKNQVSLSCAVKGFYPSDIAVEWESNGQPENNYKTTPPVLDSDGSFFLVSKLTVDKSRWQQGNVFSCSVMHEALHNHYTQKSLSLSPG
heavy 2: not shown
light: B3 light
